Laboratory results taken from patent US20120064075.

Target: type IV collagen

B1: murine chimera FIXGla-Egf1FVIIa (protein)
chain: MKHLNTVMAESPALITIFLLGYLLSTECAVFLDRENATKILTRPKRYNSGKLEEFVRGNLERECIEERCSFEEAREVFENTEKTTEFWKQYVDGDQCESNPCLNGGICKDDISSYECWCQVGFEGRNCEFSKNEQLICANENGDCDQYCRDHVGTKRTCSCHEDYTLQPDEVSCKPKVEYPCGRIPVVEKRNSSSRQGRRKRRKRIVGGNVCPKGECPWQAVLKINGLLLCGAVLLDARWIVTAAHCFDNIRYWGNITVVMGEHDFSEKDGDEQVRRVTQVIMPDKYIRGKINHDIALLRLHRPVTFTDYVVPLCLPEKSFSENTLARIRFSRVSGWGQLLDRGATALELMSIEVPRLMTQDCLEHAKHSSNTPKITENMFCAGYMDGTKDACKGDSGGPHATHYHGTWYLTGVVSWGEGCAAIGHIGVYTRVSQYIDWLVRHMDSKLQVGVFRLPLL
Q: Which “ELISA measurements of expressed chimera in blood 10 minutes after a bolus of FIX” value does the source give for B1 here?
A: a 4-fold increase in the chimeric protein was measured
